# Assay results as given in patent US6730828B1, “Isolated nucleic acids encoding a wheat glutathione transferase, plants transformed therewith and methods of use thereof” (Aventis Agriculture Limited, priority 1997, dated 2004).
# B1: TaGST1-2: wheat GST isoenzyme, heterodimer of TaGST1 and 26 kDa TaGST2 subunits (SEQ ID No. 2/SEQ ID No. 16) (protein)
# chain 1: MAGEKGLVLLDFWVSPFGQRVRIALAEKGLPYEYAEEDLMAGKSDRLLRANPVHKKIPVLLHDGRAVNESLIILQYLEEAFPDAPALLPSDPYARAQARFWADYVDKKVYDCGSRLWKLKGEPQAQARAEMLDILKTLDGALGDKPFFGGDKFGFVDAAFAPFTAWFHSYERYGEFSLPEVAPKIAAWAKRCGERESVAKSLYSPDKVYDFIGLLKKKYGIE
# chain 2: MAGDGELKLLGVWTSPFVIRVRVVLNLKSLPYEYVEESLGSKSALLLGSNPVHQSVPVLLHGGRPVNESQVIVQYIDEVWAGAGPSVLPADPYERATARFWAAYVDDKVGSAWTGMLFSCKTEEERAEAVSRAVAALETLEGAFAECSKGKAFFGGDAIGFVDVVLGGYLGWFGAIDKIIGRRLIDPARTPLLARWEERFRAADAAKGVVPDDADKMLEFLPTVLAWIAGKAK
# modifications: heterodimer; Triticum aestivum L.
# B2: TaGST1-3: wheat GST isoenzyme, heterodimer of TaGST1 and 26 kDa TaGST3 subunits (SEQ ID No. 2/SEQ ID No. 18) (protein)
# chain 1: B1 chain 1
# chain 2: MAGGEELKLLGWWAPGVSPYVLRAQMALAVKGLSYDYLPEDRWSTSDLLIASNPVYKKVPVLIHNGRPVCESLLILEYLDDAVGLAGNGKPILPADPYSRAVARFWAAYVNDKLFPSCTGILKTTKQEERAGKMEETLSGLRHLEAVMAECSEGEAEAPFFGGDAIGFLDIALGCYLPWFEAAGRLAGLGPIIDPARTPKLAAWAERFSVAEPIKALLPGVDKLEEYITTALYPKWNIAVTGN
# modifications: heterodimer; Triticum aestivum L.
# B3: TaGST1: recombinant wheat GST from TaGST1 cDNA (SEQ ID No. 1, amino acid SEQ ID No. 2) expressed in E. coli (protein)
# chain: B1 chain 1
# modifications: Triticum aestivum L.
# B4: WIC 1: recombinant type I wheat GST, SEQ ID No. 3, amino acid SEQ ID No. 4 (protein)
# chain: MAAPAVKVYGWAMSPFVARALLCLEEAGVEYELVPMSREAGDHRQPDFLARNPFGQVPVLEDGDLTIFESRAVARHVLRKHKPELLGSGSPESAAMVDVWLEVEAHQHQTPAGTIVMQCILTPFLGCQRDQAAIDENAAKLTNLFDVYEARLSASRYLAGEAVSLADLSHFPFMRYFMDTEYASLVEERPHVKAWWEEFKASPAAKRVTEFMPPNFGFGKKAEK
# modifications: Triticum aestivum L.
# Tests used:
# GST activity toward CDNB = format: biochemical
# Method: (§1) The purified isoenzymes were assayed for GST activity toward herbicides using the HPLC-based assays described by Edwards R. and Cole D. J. (Pesticide Biochemistry and Physiology Vol. 54, pp96-104 (1996)) and the results are presented in Table 2. […] These isoenzymes had additional activities as glutathione peroxidases able to reduce linoleic acid hydroperoxide, a major reaction product formed during membrane peroxidation in plants (Williamson and Beverly. J. Cereal Sci. 8, 1988, 155-163).
# To confirm that TaGST1 encoded a GST, it was expressed as a fusion protein with beta-galactosidase using the pBluescript plasmid in E. coli strain SOLR. TaGST1 clones were inoculated into LB liquid medium and were grown overnight at 37/C on all orbital shaker in the presence of IPTG. Bacteria were then pelleted by centrifugation, lysed by sonication and assayed for GST activity toward CDNB and analysed by SDS-PAGE and Western blotting using the anti-TaGSTI-I serum. With all six TaGST1 clones, GST activity toward CDNB could be determined in the crude extracts in the range 30-50 nkat/mg crude lysate.
# (§2) To assay the recombinant fusion proteins for GST activity, the E. coli were grown in the presence of IPTG and then pelleted by centrifugation. The bacteria were then lysed by sonication and the protein precipitated using 80% ammonium sulphate. After resuspension and desalting, GSTs were purified by affinity chromatography. The WIC 3 fusion protein was purified using sulphobromophthalein-S-glutathione affinity chromatography (Mozer et al. Biochem. 22, 1983, 1068-1072) while the other WIC fusion proteins were purified using glutathione-agarose (Mannervik and Guthenberg. Methods Enzymol. 77 1981, 231-235).The purified enzymes were then assayed for GST activities toward herbicides (Table 3) and GST activities toward non-herbicide substrates and glutathione peroxidase activities toward organic hydroperoxides (Table 4).
# A polyclonal antiserum was raised in a rabbit to a mixture of TaGST1-2 and TaGST1-3. When tested against crude extracts from safener-treated wheat shoots the antiserum recognised both the 25 kDa TaGST1 subunit and the 26 kDa safener-inducible TaGST2 and TaGST3 subunits. The antiserum was then used in conjunction with the antiserum raised to TaGST1-1 to immuno screen the cDNA library prepared from fenchlorazole ethyl treated wheat shoots as described in example 1. Duplicate lifts were taken from the plated out library and the first blot screened with the antiserum raised against TaGST1-2 and TaGST1-3. The second blot was screened with the antiserum raised to TaGST1-1. Five plaques were identified from the first blot which were absent from the second blot corresponding to cDNAs encoding TaGST2 or TaGST3 like polypeptides and theses clones were purified and the respective plasmids sequenced. […] The other three clones ICC. ICP and ICV had identical DNA sequences (SEQ ID No. 17) and predicted amino acid sequence (SEQ ID No. 18). GST ICJ was sub-cloned into the pET 11a vector after using PCR to introduce a Nde 1 restriction site into the translation start site, using the primer 5′ AGGTAGTTACATATGGCCGGAGGA 3′ (SEQ ID No. 19) in the amplification. following sub-cloning, the sequence of GST ICJ was re-checked to ensure no PCR induced errors had been introduced. The recombinant GST ICJ was then expressed in E. coli and purified by S-hexylglutathione affinity chromatography. The purified GST ICJ was assayed for activities as a GST (Table 3) and as a glutathione peroxidase (Table 4). […] GST ICV was finally expressed as the respective beta-galactosidase fusion protein using the Bluescript plasmid and assayed for GST activity (Table 3 ) and glutathione peroxidase activity (Table 4) in crude bacterial lysates. […]
# [1] = GST activity toward herbicide fenoxaprop-ethyl (HPLC-based assay); format: biochemical
# Method: as §1, §2
# (§3) A polyclonal antiserum was raised in a rabbit to a mixture of TaGST1-2 and TaGST1-3. When tested against crude extracts from safener-treated wheat shoots the antiserum recognised both the 25 kDa TaGST1 subunit and the 26 kDa safener-inducible TaGST2 and TaGST3 subunits. The antiserum was then used in conjunction with the antiserum raised to TaGST1-1 to immuno screen the cDNA library prepared from fenchlorazole ethyl treated wheat shoots as described in example 1. Duplicate lifts were taken from the plated out library and the first blot screened with the antiserum raised against TaGST1-2 and TaGST1-3. The second blot was screened with the antiserum raised to TaGST1-1. Five plaques were identified from the first blot which were absent from the second blot corresponding to cDNAs encoding TaGST2 or TaGST3 like polypeptides and theses clones were purified and the respective plasmids sequenced. […] The other three clones ICC. ICP and ICV had identical DNA sequences (SEQ ID No. 17) and predicted amino acid sequence (SEQ ID No. 18). GST ICJ was sub-cloned into the pET 11a vector after using PCR to introduce a Nde 1 restriction site into the translation start site, using the primer 5′ AGGTAGTTACATATGGCCGGAGGA 3′ (SEQ ID No. 19) in the amplification. following sub-cloning, the sequence of GST ICJ was re-checked to ensure no PCR induced errors had been introduced. The recombinant GST ICJ was then expressed in E. coli and purified by S-hexylglutathione affinity chromatography. The purified GST ICJ was assayed for activities as a GST (Table 3) and as a glutathione peroxidase (Table 4). […] GST ICV was finally expressed as the respective beta-galactosidase fusion protein using the Bluescript plasmid and assayed for GST activity (Table 3 ) and glutathione peroxidase activity (Table 4) in crude bacterial lysates. The specific activity of GST ICV toward these substrates was then calculated by I) subtracting the low levels of GST and GPOX activity present due the endogenous activities in the E. coli and ii) determining the proportion of protein in the lysate present as recombinant GST ICV from SDS-PAGE analysis, by densitometry analysis of polypeptides stained with Coomassie blue.
# [2] = GST activity toward herbicide fluorodifen (HPLC-based assay); format: biochemical
# Method: as §1, §2, §3
# wheat shoots = test: Enhancement of GST isoenzyme expression in wheat shoots by safener fenchlorazole-ethyl; format: in vivo, Triticum aestivum L. var. Hunter; settings: for % enhancement by safener: fenchlorazole-ethyl treated (safened) versus unsafened wheat shoots; for Effect of safener fenchlorazole-ethyl on expression: wheat shoots, in words
# Method: Wheat seeds (Triticum aestivum L. var. Hunter) were imbibed in a 10 mg/l solution of the herbicide safener fenchlorazole-ethyl and then grown in an environmental growth room with further root-applied watering treatments of 5 mg/l fenchlorazole ethyl applied as required. At 10 days after imbibing, the shoot tissue was harvested and extracted prior to precipitation of the protein with ammonium sulphate (80% saturation). The total protein extract was then applied in the presence of 1 M ammonium sulphate to a phenyl-Sepharose column. The bound GSTs were then recovered, firstly by reducing the ammonium sulphate concentration to 0 M to yield the polar GST fraction, which represented 61% of the recovered activity toward 1-chloro-2,4-dinitrobenzene (CDNB). The remaining 39% of the GST activity was then recovered by adding ethylene glycol (50% v/v) to the running buffer to yield the hydrophobic GST fraction. […] The component polypeptides in the active fractions were then analysed by silver staining after resolution by sodium dodecyl sulphate polyacrylamide gel electrophoresis (SDS-PAGE). It was concluded that in fenchlorazole-ethyl-treated wheat the polar GSTs were composed of 25 kDa and 26 kDa polypeptides, while the hydrophobic fraction contained 25 kDa, 26 kDa and 24 kDa polypeptides. Further analysis by reversed-phase HPLC confirmed the subunit compositions (FIG. 2). Based on the combined analyses by Q-sepharose, HPLC and SDS-PAGE these GST polypeptides were named as described in Table 1, which also contains details of how these subunits associate together to form the active dimers found in plants and the relative abundance of these subunits in extracts from unsafened and fenchlorazole-ethyl treated ([…]) plants.
# [3] = GST activity toward herbicide metolachlor (HPLC-based assay); format: biochemical
# Method: as §1, §2, §3
# [4] = GST activity toward crotonaldehyde; format: biochemical; settings: recombinant wheat GST, affinity purified; ± standard error
# Method: as §2
# [5] = Glutathione peroxidase activity toward cumene hydroperoxide; format: biochemical; settings: recombinant wheat GST, affinity purified; ± standard error (n = 3)
# Method: as §2, §3
# [6] = GST activity toward benzyl isothiocyanate; format: biochemical; settings: recombinant wheat GST, affinity purified; ± standard error
# Method: as §2
# [7] = isoenzymes purified from fenchlorazole-ethyl-treated wheat shoots
# [8] = recombinant wheat GST expressed in E. coli, affinity purified
# [9] = recombinant wheat GST expressed in E. coli, affinity purified, ± standard error
% enhancement by safener (wheat shoots),Molecule,GST activity toward CDNB (GST activity toward CDNB; [7]),"GST activity toward fenoxaprop-ethyl [1, 7] [nkat.mg^−1]","GST activity toward fluorodifen [2, 7] [nkat.mg^−1]",Effect of safener fenchlorazole-ethyl on expression (wheat shoots),"GST activity toward metolachlor [3, 7] [nkat.mg^−1]",GST activity toward CDNB (GST activity toward CDNB; [8]) [nkat.mg^−1],"GST activity toward fenoxaprop-ethyl [1, 9] [nkat.mg^−1]","GST activity toward fluorodifen [2, 9] [nkat.mg^−1]",GST activity toward crotonaldehyde [4] [nkat.mg^−1],Glutathione peroxidase activity toward cumene hydroperoxide [5],GST activity toward benzyl isothiocyanate [6] [nkat.mg^−1],"GST activity toward metolachlor [3, 9] [nkat.mg^−1]"
Only,B1,"1,441 nkat.mg^−1",0.61,0.38,only observed following treatment with the safener,0.25,,,,,,,
Only,B2,"1,700 nkat.mg^−1",0.44,0.38,only observed following treatment with the safener,0.28,,,,,,,
,B3,,,,,,1970,0,2.0 ± 0.1,3.7 ± 0.3,0.7 ± 0.1 absorbance change at 340 nm.mg^−1,11.8 ± 0,0.127 ± 0.014
,B4,,,,,,406.5,0.050 ± 0.010,0.136 ± 0.011,7.1 ± 0.7,18.6 ± 0.5 absorbance change at 340 nm.mg^−1,18.0 ± 3.75,0.315 ± 0.003
